# Literature values in article PMC7618755.
# Key:
# PD-L1 (Homo sapiens) = PD-L1 (Homo sapiens) (UniProt Q9NZQ7)
# CD80 (Homo sapiens) = CD80 (Homo sapiens) (UniProt P33681)
# UniProt Q9NZQ7, sequence (Q9NZQ7 19-238): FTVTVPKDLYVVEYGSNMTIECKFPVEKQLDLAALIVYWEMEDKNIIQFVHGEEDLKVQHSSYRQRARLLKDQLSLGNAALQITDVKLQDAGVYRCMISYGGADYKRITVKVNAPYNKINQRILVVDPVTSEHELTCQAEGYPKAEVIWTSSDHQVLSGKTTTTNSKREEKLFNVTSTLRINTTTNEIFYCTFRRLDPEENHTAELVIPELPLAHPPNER
substance,measurement,setting,value
CD80 (from UniProt P33681),Kd,PD-L1 (Homo sapiens),20 µM
same,Kd,CD80 (Homo sapiens),35 µM
